Assay results taken from the supplement of paper PMC9170038.

Columns and labels:
MS2 coat protein [1] = assay: apparent KD of MS2 coat protein, switch OFF state (with FMN for OFF switches, without FMN for ON switches); designed switch direction (-1 OFF switch, 1 ON switch): -1; higher = weaker reporter binding; conditions: FMN input: 0 or 200 uM; Eterna round: R93 (includes R88 designs)
Method in brief: (§1)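 Titration buffer: 100 mM Tris-HCl pH 7.5, 80 mM KCl, 4 mM MgCl2, without or with constant ligand. Designed RNA switches transcribed on-chip from Illumina sequencing clusters received SNAP-549-labelled MS2 coat protein in twofold steps from 0.7 or 1.5 nM to 3 µM. Apparent KD is the median per design of fits to normalised cluster binding curves.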

MS2 coat protein [2] = assay: apparent KD of MS2 coat protein, switch ON state; designed switch direction (-1 OFF switch, 1 ON switch): -1; higher = weaker reporter binding; conditions: FMN input: 0 or 200 uM; Eterna round: R93 (includes R88 designs)
Method in brief: as §1

MS2 coat protein [3] = assay: apparent KD of MS2 coat protein; designed switch direction (-1 OFF switch, 1 ON switch): 1; higher = weaker reporter binding
Method in brief: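 The buffer was Tris-HCl pH 7.5 with KCl, MgCl2, BSA, DTT, tRNA and Tween-20. In it, SNAP-549-labelled MS2 coat protein was titrated in doubling steps from 0.7 or 1.5 nM to 3 µM over chip-bound RNA switches transcribed by stalled E. coli RNA polymerase on Illumina chips. Apparent KD is the per-design median over clusters of curve fits to normalised fluorescence.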

[4] = input ligand: microRNA oligo, concentration not stated
[5] = Eterna round: R95, input ligand: microRNA oligo, concentration not stated

Sequence | apparent KD of MS2 coat protein (MS2 coat protein [1]) [nM] | apparent KD of MS2 coat protein (MS2 coat protein [2]) [nM] | apparent KD of MS2 coat protein (MS2 coat protein [3]; [4]) [nM] | also measured
AAAAAACAUGAGGAUCACCCAUGUAAGGAUAUCGGAAAAGGAAAAAAAAAAAAGAAGACGAGAAGGUACACCAA | 31.5 | 25.9 | – | –
AAAAAACAUGAGGAUCACCCAUGUAAGGAUAUCUAAAAUAAAAGAAAAAUAAAGAAAAGGAGAAGGUACAAGGA [JL wbt mod 25] | 32.6 | 13.8 | – | –
AAAAAACAUGAGGAUCACCCAUGUAAGGAUAUGCUAAAAAAAAAAAAAAAAAAAAAAUGCAGAAGGUACAAAAA [water's exclusion 1 again] | 40.2 | 40.4 | – | –
AAAAAACAUGAGGAUCACCCAUGUAAGGAUAUGCUCGUGCGAAAAAGCACAAAAAAGAGCAGAAGGUACAAAAA [66%, Wbt, 40] | 34.4 | 18.8 | – | –
AAAAAACAUGAGGAUCACCCAUGUAAGGAUAUGCUGAAAAAACACUGGAAACAGUGCAGCAGAAGGUACAAAAA [66%, Wbt, 35] | 27.2 | 21.5 | – | –
AAAAAACAUGAGGAUCACCCAUGUCAGGAUAUCGAAAAGAAAAGAAAAGAAAGAAGAACGAGAAGGGACAAGAA [Menkaura] | 24.5 | 29.3 | – | –
AAAAAACAUGAGGAUCACCCAUGUCAGGAUAUGAACGAAAAUAAAUAAAAAUAAAAGUUCAGAAGGGACGAAAA [66%, Wbt, 17] | 41.5 | 38 | – | –
AAAAAACAUGAGGAUCACCCAUGUCAGGAUAUGCCAACCUAAAAAAAAAAAAAAAAACGUAGAAGGGACAAAAA [Bilbo Confounded 2 - Jieux - Exclusion 1] | 23.5 | 28.7 | – | –
AAAAAACAUGAGGAUCACCCAUGUGAGGAUAUACGAAAGUAGAAGGCACUAAAAAAAAAAAGAAGGAAAAAAAA [Meechl Ex1 R2 m0] | 42.4 | 24.2 | – | –
AAAAAACAUGAGGAUCACCCAUGUGAGGAUAUCCAGAAGGGAAUAAAAUAACACGAAAGGAGAAGGCACAAAAA [Ex 1 May 36] | 31.7 | 34 | – | –
AAAAAACAUGAGGAUCACCCAUGUGAGGAUAUCGUGCAGAAAAAAAAAAAAAACUGCACGAGAAGGCACAUGAA | 105 | 38.9 | – | –
AAAAAACAUGAGGAUCACCCAUGUGAGGAUAUCUGUAUUCAAUCCUCGGAUUGAAUACAGAGAAGGCACAUGAA [Ex1: 611] | 330 | 34 | – | –
AAAAAACAUGAGGAUCACCCAUGUGAGGAUAUGACUUAAAUAAAGAAAGAAGAAAUAGUCAGAAGGCACAAAUA [Mat - Mod of Nando] | 42.9 | 28.6 | – | –
AAAAAACAUGAGGAUCACCCAUGUGAGGAUAUGAUGAAAGAUUGAAAAAGGUUGAAAGUCAGAAGGUAUGUGAA [Exclusion 1.3] | 35.7 | 30.4 | – | –
ACAGCUGAAGGAUAUACUUGGAAAAAAAAAAAAAAAAAAAAACAUGAGGAUCACCCAUGUAGAAGGUCAGCUGA [Brourd - Exclusion 2 - Sub 2] | – | 50.3 | – | –
UUCUCCUUUUUUUACAUGAGGAUCACCCAUGUUUUUCUUACGUAGGAUAUCGUUGUUUUUUUUUACGAGAAGGACGUAGUAAGU [JR_SSND3_Sub060] (Eterna round: R96, puzzle: Same State NG 3) | – | – | 25.8 | apparent KD of MS2 coat protein (MS2 coat protein [3]; input ligand: FMN 200 uM): 31.5 nM; apparent KD of MS2 coat protein (MS2 coat protein [3]; input ligand: none): 36.2 nM
UUCUGAUAGCGAGGAUAUCGCGAGGAUCACCCGUGAGAAGGCGCAGAGCCGAGGAUCACCCGGCUGAUCCUGAGAAGGAGGUCA (Eterna round: R96, puzzle: Same State NG 1) | – | – | 333 | apparent KD of MS2 coat protein (MS2 coat protein [3]; input ligand: FMN 200 uM): 136 nM; apparent KD of MS2 coat protein (MS2 coat protein [3]; input ligand: none): 530 nM
UUGAAGAAUUAAGGAUAUCGAGUCGUCAGAUUUUACAUGAGGAUCACCCAUGUGGGUUGCGGUAUCGAGAAGGUAAAUUACAAG [JL JR Sub099 mod 6] (Eterna round: R96, puzzle: Same State NG 2) | – | – | 34.1 | apparent KD of MS2 coat protein (MS2 coat protein [3]; input ligand: FMN 200 uM): 24.4 nM; apparent KD of MS2 coat protein (MS2 coat protein [3]; input ligand: none): 43.3 nM
UUGAAGAAUUAAGGAUAUUGAAUACAUAUGUUUAACAUGAGGAUCACCCAUGUGGGUUGCGGUAUCGAGAAGGUAAAUUACUAA [Mat - Same State NG 2 - JL mod - D1] (Eterna round: R96, puzzle: Same State NG 2) | – | – | 80.5 | apparent KD of MS2 coat protein (MS2 coat protein [3]; input ligand: FMN 200 uM): 140 nM; apparent KD of MS2 coat protein (MS2 coat protein [3]; input ligand: none): 112 nM
UUGAAGAAUUAAGGAUAUUGAGUACAUAUGUUAAACAUGAGGAUCACCCAUGUGGGUUGCGGUAUCGAGAAGGUAAAUUACUAG [Mat - same State NG 2 - JL mod - D68] (Eterna round: R96, puzzle: Same State NG 2) | – | – | 46.8 | apparent KD of MS2 coat protein (MS2 coat protein [3]; input ligand: FMN 200 uM): 90.9 nM; apparent KD of MS2 coat protein (MS2 coat protein [3]; input ligand: none): 70.8 nM
UUGAAUAAUUAAGGAUAUCGAGUCAAGAUGUUAAACAUGAGGAUCACCCAUGUGGGUUGCGGUAUCGAGAAGGUAAAUAAGAAG [Mat - Same State NG 2 - JL mod - D55] (Eterna round: R96, puzzle: Same State NG 2) | – | – | 19.6 | apparent KD of MS2 coat protein (MS2 coat protein [3]; input ligand: FMN 200 uM): 26.6 nM; apparent KD of MS2 coat protein (MS2 coat protein [3]; input ligand: none): 42.5 nM
UUGAUUAGAAGUUAACAUGAGGAUCACCCAUGUAUUGGAUCAGAGGAUAUGCAUGUUUGAUAGUAGCAGAAGGCUGAUGGUGGA [JR_SSNG3_Sub026] (Eterna round: R96, puzzle: Same State NG 3) | – | – | 39.8 | –
UUGCGCUGUCGAGAGGAUAUGCGGUGUUGGACAUGAGGAUCACCCAUGUUUGCGAUAGCUUUACGGUAGAAGGCUCUUCAGCUGC [salish99_ss2_r3_099] (puzzle: Same State 2) | – | – | – | apparent KD of MS2 coat protein (MS2 coat protein [3]; [5]): 45.8 nM
UUGCGGGCUUGAGGAUAUUGAGUACAUAUGUUUAACAUGAGGAUCACCCAUGUGGGUUGCGGUAUCGAGAAGGUGGCUUCCUGC [salish99_SSNG2_r04_813] (Eterna round: R96, puzzle: Same State NG 2) | – | – | 82.7 | apparent KD of MS2 coat protein (MS2 coat protein [3]; input ligand: FMN 200 uM): 81.9 nM; apparent KD of MS2 coat protein (MS2 coat protein [3]; input ligand: none): 74.8 nM
UUGCUCGUGUGAGGAUAUGCCGCCGUUUCGGCUGCAGAAGGUACUCUUAUACAUGAGGAUCACCCAUGUCUCUGUUGUUUCGUG [salish99_SSNG1_r04_936] (Eterna round: R96, puzzle: Same State NG 1) | – | – | 65.3 | apparent KD of MS2 coat protein (MS2 coat protein [3]; input ligand: FMN 200 uM): 97.9 nM; apparent KD of MS2 coat protein (MS2 coat protein [3]; input ligand: none): 98.2 nM
UUGCUCGUGUGAGGAUAUGCCGCCGUUUCGGCUGCAGAAGGUACUCUUGUACAUGAGGAUCACCCAUGUCUCUGUUGUUUCGUG [salish99_SSNG1_r04_938] (Eterna round: R96, puzzle: Same State NG 1) | – | – | 43.6 | –
UUUAGUUGCGGGCAGGAUAUGUAUUAAAAUACAUGAGGAUCACCCAUGUGAGAUCGAAAAGAUCUACAGAAGGGCCAAUCGCGAC [Laonerce - 24] (puzzle: Same State 2) | – | – | – | apparent KD of MS2 coat protein (MS2 coat protein [3]; Eterna round: R95, input ligand: FMN 200 uM): 14 nM; apparent KD of MS2 coat protein (MS2 coat protein [3]; [5]): 58.3 nM; apparent KD of MS2 coat protein (MS2 coat protein [3]; Eterna round: R95, input ligand: none): 85.8 nM
UUUGGGUGGCUGGAGGAUAUUCUAGUGGUUACAUGAGGAUCACCCAUGUGUCGCGCGGUUCGCGAGGAGAAGGCUGGCGGCCGUU (puzzle: Same State 2) | – | – | – | apparent KD of MS2 coat protein (MS2 coat protein [3]; [5]): 93.3 nM
UUUUCGAACCGAGGAUAUCCUUAUAAGAAACAUGAGGAUCACCCAUGUAAAGGGAAUUAUUUGAAGGAGAAGGCGGAUUUUGUU [JR_SSNG2_Sub053] (Eterna round: R96, puzzle: Same State NG 2) | – | – | 33.5 | –
